Measurements taken from publication PMC10463352, “A signaling complex of adenylate cyclase CyaC of Sinorhizobium meliloti with cAMP and the transcriptional regulators Clr and CycR” (BMC Microbiology, 2023).

B1: His6-CyaC (enzyme, Sinorhizobium meliloti, UniProt Q92MZ6 1-557, looked up)
chain: MTILSASTRKKMHLISGAVLGVFVLLHFSNHALGLVSIDAMETGRRIFTSVWQSIPGTALLYGALLLHFLMALDSLYRRQTFRMPVGEALKIIFGLSLPFLLVPHVVAARVEPLLSGVYPDYPAILRTLWSSSFNTSRQSLALIVVWGHACLGAWFWMRGRAWFPKYETLLYTVALLVPIFALLGFVNGARSLERDYAEHGGYGDRAYSSQAPRVDPNLLDKIRLAFYGGFASLIGGTLVLRALPARGRIRIRYPDGRVAAVSLGFSVLEASRAAGIPHVSVCGGRGRCSTCRVRITQGLEGQPPPEAAELATLTRIGAPENVRLACQFRPVHNVSVVPILDTDSLGIKTQLARQNAGGRERRVAVLFCDLRDFTRIAEHRLPYDTVFLLNRYFEVVGEAVEGSGGVVDKFIGDGALAIFGLKTPLPEACRQALSAAARLSQGIRALNQTFEGELEQPLRLAIGLHAGPAIIGEMGYGQATSLTVVGDTINTASRLEGLAKEHDVELAVSAELVERAGLSFEGHRRLEIGLRGRKATLETWIIGDAAQLSLSLPMQG
notes: His6-CyaC printed as 64.0 kDa; Solubilised in detergent; also called SMc01818 protein; source: E. coli C43(DE3) with pMW3043, extracted from membranes with 1% n-dodecyl-β-D-maltoside, purified (Ni2+-NTA); not shown: His6, N-terminal, kept
B2: CycR-Strep (natural protein, Sinorhizobium meliloti, UniProt Q92MZ5 1-213, looked up)
chain: MVLPRAARTQRRTRIQEEKEEQILEAALEVFSANGFRGSTIDQIADVAGMSKPNLLYYFRTKEAMHRALIDRVLDTWLDPLRAFDAEGNPVAEIRSYIRRKLEMARDFPRESRLFANEVLQGAPRIVDELKGPLKQLVDEKAEVIRSWAKAGKIAKCDPYHLIFAIWSTTQHYADFDVQVRAVLGQENAGEGRFEDAARFLERLFVDGLQVRE
notes: TetR-like transcriptional regulator CycR (TR01819, product of gene smc01819) of Sinorhizobium meliloti; CycR-Strep printed as 28.3 kDa; The purification is told in words only for Clr-Strep; also called Strep-CycR; TR01819; source: E. coli BL21(DE3) with pMW3065, purified; not shown: Strep, C-terminal, kept

Tests used:
[1] = target: CyaC(K410A T484A), fused to the T18 or T25 fragment of Bordetella pertussis adenylate cyclase (Sinorhizobium meliloti); assay: two-hybrid; bacterial adenylate cyclase two-hybrid (BACTH) in E. coli BTH101; T18 and T25 fusions co-expressed from plasmids; grown anaerobically in LB with 20 mM DMSO; β-galactosidase read-out, percent of the Zip-T18/Zip-T25 positive control
CycR-Strep = target: B2; assay: SPR; Biacore T200, CM5 chip with StrepTactin; about 200 RU CycR-Strep captured; His6-CyaC injected at 10-5,000 nM; HBS-EP+ (10 mM HEPES pH 7.4, 150 mM NaCl, 3 mM EDTA, 0.05% P20), 25 °C; without cAMP; conditions: both partners purified
His6-CyaC [2] = target: B1; assay: as above; conditions: both partners purified
His6-CyaC [3] = target: B1; assay: SPR; Biacore T200, CM5 chip with StrepTactin; about 200 RU CycR-Strep captured; His6-CyaC injected at 10-5,000 nM; HBS-EP+ (10 mM HEPES pH 7.4, 150 mM NaCl, 3 mM EDTA, 0.05% P20), 25 °C; with 500 µM cAMP; conditions: both partners purified

## Clr (Smc02175), fused to the T18 or T25 fragment of Bordetella pertussis adenylate cyclase (natural protein)
[1]
  BACTH β-galactosidase activity, percent of the Zip positive control: 108%

## B1
CycR-Strep
  stoichiometry N: 1

## B2
His6-CyaC [2]
  Kd: 160 nM
His6-CyaC [3]
  Kd: 114 nM
